Substitutions are numbered along the chain they refer to.

Sequences and labels used below:
T1: human CD98 on the cell surface (human)
T1 chain: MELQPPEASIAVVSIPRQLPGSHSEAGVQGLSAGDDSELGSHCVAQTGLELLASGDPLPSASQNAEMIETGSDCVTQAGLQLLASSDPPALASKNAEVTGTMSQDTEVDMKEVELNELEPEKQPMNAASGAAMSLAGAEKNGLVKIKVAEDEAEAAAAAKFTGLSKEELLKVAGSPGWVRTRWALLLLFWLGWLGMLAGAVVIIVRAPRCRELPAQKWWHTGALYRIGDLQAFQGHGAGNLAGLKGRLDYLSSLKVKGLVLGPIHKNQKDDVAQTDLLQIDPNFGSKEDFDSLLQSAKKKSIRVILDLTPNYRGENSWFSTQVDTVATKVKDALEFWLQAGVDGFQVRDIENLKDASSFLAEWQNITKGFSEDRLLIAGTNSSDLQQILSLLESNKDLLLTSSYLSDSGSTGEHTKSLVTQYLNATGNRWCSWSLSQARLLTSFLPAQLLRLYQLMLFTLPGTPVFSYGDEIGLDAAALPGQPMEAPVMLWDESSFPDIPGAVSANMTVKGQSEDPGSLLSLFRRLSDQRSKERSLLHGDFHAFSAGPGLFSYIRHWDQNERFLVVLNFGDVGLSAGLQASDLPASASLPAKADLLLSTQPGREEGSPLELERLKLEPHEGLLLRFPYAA

T2: human CD98 on human cancer cell lines (EBC-1, H2170, Molt-4) (human)
T2 chain: T1 chain

T3: human CD98, endogenously expressed on Molt-4 human acute lymphoblastic leukemia cells (human)
T3 chain: T1 chain

B1: ChAb8-CZ (other)
VH: EVQLVESGGGLVQPGRSLKLSCAASGFTFSDYAMAWVRQAPKKGLEWVASIIYDGRGTYYRDSVKGRFTISRDNAKSTLYLQMDSLRSEDTATYYCARQGDGTYYYWGYFDYWGQGVMVTVSS
VL: DIVMTQSPSSLAVSAGETVTINCKSSQSLLSSGNQKNYLAWYQQKPGQSPKLLIYWASTRQSGVPDRFIGSGSGTDFTLTINSVQAEDLAIYYCQQYYDTPYTFGAGTKLELK
modifications: synthon CZ on reduced interchain Cys of the constant regions (sites not numbered)
B2: ChAb15-CZ (other)
VH: B1 VH with A33T, S50T, G100S
VL: B1 VL with S31F, N82R, T100S
modifications: synthon CZ on reduced interchain Cys of the constant regions (sites not numbered)
B3: ChAb10-CZ (other)
VH: B1 VH with G44S, S50T, Y60C, Y105H
VL: B1 VL with N82S, L110V, E111D
modifications: synthon CZ on reduced interchain Cys of the constant regions (sites not numbered)
B4: ChAb12-CZ (other)
VH: B1 VH with Y109S
VL: B1 VL with N82S, Y93H
modifications: synthon CZ on reduced interchain Cys of the constant regions (sites not numbered)
B5: ChAb11-CZ (other)
VH: B1 VH with S50G
VL: B1 VL with K24R, N82S
modifications: synthon CZ on reduced interchain Cys of the constant regions (sites not numbered)
B6: ChAb1-CZ (other)
VH: EVKLVESGGGLVQPGGSLRLSCATSGFTFTDYYMSWVRQPPGKALEWLGFIRNPANVYTTEYSASVKGRFTISRDNSQSILYLQMNTLRAEDSATYYCARASYGNSEGWFAYWGQGTLVTVSA
VL: DIVMSQSPSSLAVSVGEKVTMSCKSSQNLLYNNNQKNYLAWYQQKPGQSPKLLIYWASTRESGVPDRFTGSGSGTDFTLTISSVKAEDLAVYYCQQYYSYPRTFGGGTKLEIK
modifications: synthon CZ on reduced interchain Cys of the constant regions (sites not numbered)
B7: ChAb3-CZ (other)
VH: EVKLVESGGGLVQPGNSLRLSCATSGFTFIDYYMSWVRQSPGKALEWLGFIRNKANGYTTEYSASVKGRFTISRDNSQSILYLQMDTLRAEDSATYYCTRDRPAWFVYWGQGTLVTVSA
VL: B6 VL with N28S, N32S, N33S, I81F, K85R, R102Y
modifications: synthon CZ on reduced interchain Cys of the constant regions (sites not numbered)
B8: ChAb5-CZ (other)
VH: B6 VH with S35T, P54K, V57G, Q78L, G104V
VL: B6 VL with N28S, N32S, N33S, P46L, Q96H
modifications: synthon CZ on reduced interchain Cys of the constant regions (sites not numbered)
B9: ChAb13-CZ (other)
VH: QVQLKESGPGLVQPSQTLSLTCTVSGFSLSSYGVIWVRQPPGKGLEWMGIIWANGNTNYNSALKSRLSISRDTSKSQVYLKMNSLQTEDTATYYCARHYYDGTHYYGYFDYWGQGVMVTVSS
VL: DTVMTQTPSSQAVSAGEKVTMSCKSSQSLLYSENKKKYLAWYQQKPGQSPKLLIYWASTRESGVPDRFIGSGSGTDFTLTISSVQAEDLAVYYCQQYYNFPYTFGAGTKLELK
modifications: synthon CZ on reduced interchain Cys of the constant regions (sites not numbered)
B10: ChAb3-CZ-DAR2 (anti-CD98 chimeric chAb3 conjugated to Bcl-xL inhibitor synthon CZ, HIC-purified DAR2 species) (antibody, human IgG1, V domains shown)
VH: B7 VH
VL: B6 VL with N28S, N32S, N33S, I81F, K85R, R102Y
modifications: Bcl-xL inhibitor synthon CZ conjugated to cysteines of the TCEP-reduced antibody (Method H); positions not given; Bcl-xL inhibitor synthon CZ conjugated to cysteines of the TCEP-reduced antibody (Method H); DAR 2.0 by MS; positions not given
B11: ChAb3-CZ-DAR4 (anti-CD98 chimeric chAb3 conjugated to Bcl-xL inhibitor synthon CZ, HIC-purified DAR4 species) (antibody, human IgG1, V domains shown)
VH: B7 VH
VL: B6 VL with N28S, N32S, N33S, I81F, K85R, R102Y
modifications: Bcl-xL inhibitor synthon CZ conjugated to cysteines of the TCEP-reduced antibody (Method H); positions not given; Bcl-xL inhibitor synthon CZ conjugated to cysteines of the TCEP-reduced antibody (Method H); DAR 4.0 by MS; positions not given
B12: CD98 (CL-huAb102)-SR (antibody, human IgG1, kappa, L234A L235A, V domains shown)
VH: EVQLVESGGGLVQPGGSLRLSCATSGFTFIDYYMSWVRQAPGKGLEWLGFIRNKANRYTTEYSASVKGRFTISRDNSKSILYLQMNSLKTEDTAVYYCTRDRPAWFVYWGQGTLVTVSS
VL: DIVMTQTPLSLPVTPGEPASISCKSSQSLLYSSNQKNYLAWYLQKPGQSPQLLIYWASTRESGVPDRFSGSGSGTDFTLKISRVEAEDVGVYYCQQYYSYPYTFGGGTKVEIKR
modifications: synthon SR on reduced cysteine (see heavy chain); Bcl-xL inhibitor synthon SR on cysteines freed by TCEP reduction (Method A); DAR 2.1 by MS for the whole ADC
B13: CD98 (CL-huAb104)-SR (antibody, human IgG1, kappa, L234A L235A, V domains shown)
VH: B12 VH with N56Y, R57G
VL: B12 VL
modifications: synthon SR on reduced cysteine (see heavy chain); Bcl-xL inhibitor synthon SR on cysteines freed by TCEP reduction (Method A); DAR 2.2 by MS for the whole ADC
B14: CD98 (CL-huAb102)-YG (antibody, human IgG1, kappa, L234A L235A, V domains shown)
VH: B12 VH
VL: B12 VL
modifications: synthon YG on reduced cysteine (see heavy chain); Bcl-xL inhibitor synthon YG on cysteines freed by TCEP reduction (Method E); DAR 1.1 by MS for the whole ADC
B15: CD98 (CL-huAb104)-YG (antibody, human IgG1, kappa, L234A L235A, V domains shown)
VH: B12 VH with N56Y, R57G
VL: B12 VL
modifications: synthon YG on reduced cysteine (see heavy chain); Bcl-xL inhibitor synthon YG on cysteines freed by TCEP reduction (Method E); DAR 1.3 by MS for the whole ADC
B16: CD98 (CL-huAb110)-SR (antibody, human IgG1, kappa, L234A L235A, V domains shown)
VH: EVQLVQSGAEVKKPGASVKVSCKASGFTFSDYTMAWVRQAPGQGLEWVATIIYDARGTYYRDAVKGRFTITRDNSTSTLYLELSSLRSEDTAVYYCARQSDDTYYYWGYFDYWGQGTMVTVSS
VL: B12 VL with S22N, Y31F, S33G, E61Q, V91I, Y100S, G106Q, V110L
modifications: synthon SR on reduced cysteine (see heavy chain); Bcl-xL inhibitor synthon SR on cysteines freed by TCEP reduction (Method A); DAR printed as '.0.7' by MS for the whole ADC
B17: CD98 (CL-huAb104)-KZ (antibody, human IgG1, kappa, L234A L235A, V domains shown)
VH: B12 VH with N56Y, R57G
VL: B12 VL
modifications: synthon KZ on reduced cysteine (see heavy chain); Bcl-xL inhibitor synthon KZ on cysteines freed by TCEP reduction (Method A); DAR 2.6 by MS for the whole ADC
B18: CD98 (CL-huAb110)-YG (antibody, human IgG1, kappa, L234A L235A, V domains shown)
VH: B16 VH
VL: B12 VL with S22N, Y31F, S33G, E61Q, V91I, Y100S, G106Q, V110L
modifications: synthon YG on reduced cysteine (see heavy chain); Bcl-xL inhibitor synthon YG on cysteines freed by TCEP reduction (Method E); DAR 2.8 by MS for the whole ADC
B19: CD98 (CL-huAb102)-KZ (antibody, human IgG1, kappa, L234A L235A, V domains shown)
VH: B12 VH
VL: B12 VL
modifications: synthon KZ on reduced cysteine (see heavy chain); Bcl-xL inhibitor synthon KZ on cysteines freed by TCEP reduction (Method A); DAR 2.8 by MS for the whole ADC
B20: CD98 (CL-huAb102)-KZ (second row with this label, r76, DAR 2.2) (antibody, human IgG1, kappa, L234A L235A, V domains shown)
VH: B12 VH
VL: B12 VL
modifications: synthon KZ on reduced cysteine (see heavy chain); Bcl-xL inhibitor synthon KZ on cysteines freed by TCEP reduction (Method A); DAR 2.2 by MS for the whole ADC

The target of one test is T1, human CD98 on the cell surface. In words: cell-based or functional assay.
For the molecule B1, the “ADC potency, IC50 (nM), H146 (SCLC) growth inhibition” value was determined as 0.094 nM; the “ADC potency, IC50 (nM), H2170 (NSCLC) growth inhibition” value worked out at 0.112 nM; the “ADC potency, IC50 (nM), MOLT4 (leukemia) growth inhibition” value came out at 0.038 nM.
Consider B2, for which the “ADC potency, IC50 (nM), H146 (SCLC) growth inhibition” value is 0.194 nM; the “ADC potency, IC50 (nM), H2170 (NSCLC) growth inhibition” value is 0.137 nM; the “ADC potency, IC50 (nM), MOLT4 (leukemia) growth inhibition” value came to 0.048 nM.
Consider B3, for which the “ADC potency, IC50 (nM), H146 (SCLC) growth inhibition” value was 0.209 nM; the “ADC potency, IC50 (nM), H2170 (NSCLC) growth inhibition” value was found to be 0.09 nM; the “ADC potency, IC50 (nM), MOLT4 (leukemia) growth inhibition” value was 0.035 nM.
Taken in the same sequence, the figures for B4 were 0.242 nM, 0.118 nM and 0.034 nM.
The matching figures for B5: 0.527 nM, 0.195 nM and 0.199 nM.
Taken in the same sequence, the figures for B6 were ~0.196 nM, 0.276 nM and 0.071 nM.
B7: the “ADC potency, IC50 (nM), H146 (SCLC) growth inhibition” value is 0.255 nM; the “ADC potency, IC50 (nM), H2170 (NSCLC) growth inhibition” value was ~0.171 nM; the “ADC potency, IC50 (nM), MOLT4 (leukemia) growth inhibition” value was 0.026 nM.
Take B8: the “ADC potency, IC50 (nM), H146 (SCLC) growth inhibition” value was ~0.188 nM; the “ADC potency, IC50 (nM), H2170 (NSCLC) growth inhibition” value amounted to 0.161 nM; the “ADC potency, IC50 (nM), MOLT4 (leukemia) growth inhibition” value came to 0.029 nM.
Taken in the same sequence, the figures for B9 were 0.115 nM, 0.321 nM and 0.052 nM.

The target in another test is T2, human CD98 on human cancer cell lines …. In words: cell-based or functional assay.
Consider B10, for which the “ADC potency, IC50 (nM), EBC (NSCLC), growth inhibition (CellTiter-Glo)” value was 271 nM; the “ADC potency, IC50 (nM), H2170 (NSCLC), growth inhibition (CellTiter-Glo)” value was determined as 0.273 nM; the “ADC potency, IC50 (nM), MOLT4 (leukemia), growth inhibition (CellTiter-Glo)” value stood at 0.046 nM.
Taken in the same sequence, the figures for B11 were 10.4 nM, 0.225 nM and 0.021 nM.

In a further test the target is T3, human CD98, endogenously expressed on …. The test can be described thus: cell-based or functional assay.
Regarding B12, the “% Cell Viability at 50 nM (Molt-4)” value stood at 12.7% and the “Molt4 IC50 (nM), 50% inhibition of cell proliferation, 72 h, ATPlite” value (from here on “Molt4 IC50 (nM), 50% inhibition”) was found to be 0.03 nM.
With B13, the “% Cell Viability at 50 nM (Molt-4)” value amounted to 2.7% and the “Molt4 IC50 (nM), 50% inhibition” value came out at 0.045 nM.
On to B14, for which the “% Cell Viability at 50 nM (Molt-4)” value came out at 31.9% and the “Molt4 IC50 (nM), 50% inhibition” value was found to be 1.21 nM.
Taken in the same sequence, the figures for B15 were 25.3% and 2.67 nM.
Consider B16, for which the “% Cell Viability at 50 nM (Molt-4)” value amounted to 11% and the “Molt4 IC50 (nM), 50% inhibition” value worked out at 0.332 nM.
The matching figures for B17: 21.2% and 0.089 nM.
Taken in the same sequence, the figures for B18 were 10% and 0.493 nM.
The matching figures for B19: 20.7% and 0.062 nM.
B20: the “% Cell Viability at 50 nM (Molt-4)” value was determined as 16.2% and the “Molt4 IC50 (nM), 50% inhibition” value was 0.35 nM.

Source of the values: US20200121803A1 (published 2020).
